Experimental data as given in patent publication US20160024210A1 (AstraZeneca / MedImmune, published 2016).

Tests used:
[1] = molecular target: T1, H7CR-GFP fusion protein on transfected CHO cells (Homo sapiens (Human), UniProt Q96BF3 23-282); assay: flow cytometry, 5 µg/ml variant on H7CR-GFP transfected CHO cells, anti-hIg PE secondary antibody [row HC2-3, column LC1-1]
T1 construct: not shown: GFP part
T1 sequence: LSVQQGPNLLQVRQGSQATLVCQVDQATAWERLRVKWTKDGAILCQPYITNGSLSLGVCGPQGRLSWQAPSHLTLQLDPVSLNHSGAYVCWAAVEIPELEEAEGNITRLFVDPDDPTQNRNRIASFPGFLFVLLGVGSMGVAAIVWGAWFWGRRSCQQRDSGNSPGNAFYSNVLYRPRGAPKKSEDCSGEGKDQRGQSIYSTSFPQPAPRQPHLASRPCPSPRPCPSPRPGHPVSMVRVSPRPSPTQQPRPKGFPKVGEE
Description: (§1) 5 μg/ml antibodies from thirty-six variants were incubated with H7CR-GFP fusion protein transfected CHO cells for 30 min at room temperature. Cells were then washed twice with 2 ml flow cytometry buffer, and resuspended in 100 μl flow cytometry buffer. 1 μl anti-hIg PE secondary antibody (Biolegend) was added and incubated with the cells for 15 mins Samples were then washed and resuspended in 100 μl flow cytometry buffer. Flow Cytometry data was acquired using BD Canto (BD Biosciences) in plate format and analyzed by FlowJo software.

[2] = molecular target: T2, human H7CR (B7-H7 counter-receptor) (human, UniProt Q96BF3 23-282); assay: binding to human H7CR as endogenously expressed on the surface of a cell
T2 construct: Used for H7CR on CHO.hH7CR transfectants, human T cells and tonsil tissue; also called B7-H7CR; CD28H
T2 sequence: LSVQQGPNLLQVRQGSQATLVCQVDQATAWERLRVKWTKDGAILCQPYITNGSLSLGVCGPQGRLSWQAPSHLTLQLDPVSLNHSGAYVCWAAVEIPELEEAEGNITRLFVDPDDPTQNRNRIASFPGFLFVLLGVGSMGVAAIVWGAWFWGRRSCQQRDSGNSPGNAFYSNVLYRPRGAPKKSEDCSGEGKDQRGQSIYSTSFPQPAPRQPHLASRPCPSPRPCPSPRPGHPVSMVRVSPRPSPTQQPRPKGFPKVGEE

[3] = molecular target: T1, H7CR-GFP fusion protein on transfected …; assay: flow cytometry, 5 µg/ml variant on H7CR-GFP transfected CHO cells, anti-hIg PE secondary antibody [row HC2-2, column LC2-2]
Description: as §1

[4] = molecular target: T1, H7CR-GFP fusion protein on transfected …; assay: flow cytometry, 5 µg/ml variant on H7CR-GFP transfected CHO cells, anti-hIg PE secondary antibody [row HC2-2, column LC2-3]
Description: as §1

[5] = molecular target: T1, H7CR-GFP fusion protein on transfected …; assay: flow cytometry, 5 µg/ml variant on H7CR-GFP transfected CHO cells, anti-hIg PE secondary antibody [row HC2-3, column LC1-2]
Description: as §1

[6] = molecular target: T1, H7CR-GFP fusion protein on transfected …; assay: flow cytometry, 5 µg/ml variant on H7CR-GFP transfected CHO cells, anti-hIg PE secondary antibody [row HC2-3, column LC2-3]
Description: as §1

[7] = molecular target: T1, H7CR-GFP fusion protein on transfected …; assay: flow cytometry, 5 µg/ml variant on H7CR-GFP transfected CHO cells, anti-hIg PE secondary antibody [row HC2-3, column LC1-3]
Description: as §1

[8] = molecular target: T1, H7CR-GFP fusion protein on transfected …; assay: flow cytometry, 5 µg/ml variant on H7CR-GFP transfected CHO cells, anti-hIg PE secondary antibody [row HC2-3, column LC2-2]
Description: as §1

[9] = molecular target: T1, H7CR-GFP fusion protein on transfected …; assay: flow cytometry, 5 µg/ml variant on H7CR-GFP transfected CHO cells, anti-hIg PE secondary antibody [row HC2-3, column LC2-1]
Description: as §1

B1: 4.5 humanized variant 31 (HC2-3 / LC1-1) (antibody, V domains shown)
VH: QIQLKESGPTLVKPTQTLTLTCTVSGFSITTGGYYWNWIRQPPGKKLEWMALIYTSGRTSYNPSLKSRLTITKDTSKNQVVLTMTNMDPVDTATYYCADMADKGGWFAYWGQGTLVTVSS
VL: DIVMTQSPDSLAVSLGERATINCKSSQSLFSSNTKRNYLAWYQQKPGQPPKLLIYHASTRESGVPDRFSGSGSGTDFTLTISSLQAEDVAVYYCQQHYETPLTFGQGTRLEIK
notes: Variable domains only; detected with anti-hIg secondary; also called VH2C / VL1A
B1: binds [1]; binds [2].

B2: 4.5 humanized variant 29 (HC2-2 / LC2-2) (antibody, V domains shown)
VH: QITLKESGPTLVKPTQTLTLTCTVSGFSITTGGYYWNWIRQPPGKKLEWLALIYTSGRTSYNPSLKSRLTITKDTSKNQVVLTMTNMDPVDTATYYCADMADKGGWFAYWGQGTLVTVSS
VL: DIVMTQTPLSLPVTPGEPASISCRSSQSLFSSNTKRNYLNWYLQKPGQSPKLLIYHASTRLSGVPDRFSGSGSGTDFTLKISRVEAEDVGDYFCQQHYETPLTFGDGTRLEIK
notes: Variable domains only; detected with anti-hIg secondary; also called VH2B / VL2B
B2: binds [2]; binds [3].

B3: 4.5 humanized variant 30 (HC2-2 / LC2-3) (antibody, V domains shown)
VH: QITLKESGPTLVKPTQTLTLTCTVSGFSITTGGYYWNWIRQPPGKKLEWLALIYTSGRTSYNPSLKSRLTITKDTSKNQVVLTMTNMDPVDTATYYCADMADKGGWFAYWGQGTLVTVSS
VL: DIVMTQTPSSLPVTPGEPASISCLSSQSLFSSNTKRNYLNWYLQKPGQSPKLLIYHASTRLSGVPDRFSGSGSGTDFTLKISRVEAEDVGDYFCQQHYETPLTFGDGTRLEIK
notes: Variable domains only; detected with anti-hIg secondary; also called VH2B / VL2C
B3: binds [2]; binds [4].

B4: 4.5 humanized variant 32 (HC2-3 / LC1-2) (antibody, V domains shown)
VH: QIQLKESGPTLVKPTQTLTLTCTVSGFSITTGGYYWNWIRQPPGKKLEWMALIYTSGRTSYNPSLKSRLTITKDTSKNQVVLTMTNMDPVDTATYYCADMADKGGWFAYWGQGTLVTVSS
VL: DIVMTQSPDSLAVSLGERATINCKSSQSLFSSNTKRNYLNWYQQKPGQPPKLLIYHASTRLSGVPDRFSGSGSGTDFTLTISSLQAEDVADYFCQQHYETPLTFGDGTRLEIK
notes: Variable domains only; detected with anti-hIg secondary; also called VH2C / VL1B
B4: binds [5]; binds [2].

B5: 4.5 humanized variant 36 (HC2-3 / LC2-3) (antibody, V domains shown)
VH: QIQLKESGPTLVKPTQTLTLTCTVSGFSITTGGYYWNWIRQPPGKKLEWMALIYTSGRTSYNPSLKSRLTITKDTSKNQVVLTMTNMDPVDTATYYCADMADKGGWFAYWGQGTLVTVSS
VL: DIVMTQTPSSLPVTPGEPASISCLSSQSLFSSNTKRNYLNWYLQKPGQSPKLLIYHASTRLSGVPDRFSGSGSGTDFTLKISRVEAEDVGDYFCQQHYETPLTFGDGTRLEIK
notes: Variable domains only; detected with anti-hIg secondary; also called VH2C / VL2C
B5: binds [2]; binds [6].

B6: 4.5 humanized variant 33 (HC2-3 / LC1-3) (antibody, V domains shown)
VH: QIQLKESGPTLVKPTQTLTLTCTVSGFSITTGGYYWNWIRQPPGKKLEWMALIYTSGRTSYNPSLKSRLTITKDTSKNQVVLTMTNMDPVDTATYYCADMADKGGWFAYWGQGTLVTVSS
VL: DIVMTQSPDSLAVSLGERATINCLSSQSLFSSNTKRNYLNWYQQKPGQSPKLLIYHASTRLSGVPDRFSGSGSGTDFTLTISSLQAEDVADYFCQQHYETPLTFGDGTRLEIK
notes: Variable domains only; detected with anti-hIg secondary; also called VH2C / VL1C
B6: binds [2]; binds [7].

B7: 4.5 humanized variant 35 (HC2-3 / LC2-2) (antibody, V domains shown)
VH: QIQLKESGPTLVKPTQTLTLTCTVSGFSITTGGYYWNWIRQPPGKKLEWMALIYTSGRTSYNPSLKSRLTITKDTSKNQVVLTMTNMDPVDTATYYCADMADKGGWFAYWGQGTLVTVSS
VL: DIVMTQTPLSLPVTPGEPASISCRSSQSLFSSNTKRNYLNWYLQKPGQSPKLLIYHASTRLSGVPDRFSGSGSGTDFTLKISRVEAEDVGDYFCQQHYETPLTFGDGTRLEIK
notes: Variable domains only; detected with anti-hIg secondary; also called VH2C / VL2B
B7: binds [2]; binds [8].

B8: 4.5 humanized variant 34 (HC2-3 / LC2-1) (antibody, V domains shown)
VH: QIQLKESGPTLVKPTQTLTLTCTVSGFSITTGGYYWNWIRQPPGKKLEWMALIYTSGRTSYNPSLKSRLTITKDTSKNQVVLTMTNMDPVDTATYYCADMADKGGWFAYWGQGTLVTVSS
VL: DIVMTQTPLSLPVTPGEPASISCRSSQSLFSSNTKRNYLDWYLQKPGQSPQLLIYHASYRASGVPDRFSGSGSGTDFTLKISRVEAEDVGVYYCQQHYETPLTFGQGTRLEIK
notes: Variable domains only; detected with anti-hIg secondary; also called VH2C / VL2A
B8: binds [2]; binds [9].
